From the Human Domainome abundance scans (Beltran et al. 2025)
± gives the uncertainty stated by the source.

B1: Tumor protein 63, residues 545 to 610; numbered along this chain, Q9H3D4 (parent)
chain: TDCSIVSFLARLGCSSCLDYFTTQGLTTIYQIEHYSMDDLASLKIPEQFRHAIWKGILDHRQLHEF
B2: Myocardin-related transcription factor A, residues 341 to 383; numbered along this chain, Q969V6 (parent)
chain: GALPANLDDMKVAELKQELKLRSLPVSGTKTELIERLRAYQDQ

Variants of: B1
Assay: abundance fitness (aPCA) (normalised: wild type 0, dead -1); higher = more abundant; growth selection in yeast, the domain comes from the species named
Conditions: Homo sapiens

Abundance fitness, by site and new letter:
I57: H -0.899 ± 0.057 | N -0.799 ± 0.082 | V -0.082 ± 0.023 | L -0.025 ± 0.03 | C -0.107 ± 0.035 | T -0.323 ± 0.025 | F -0.203 ± 0.04 | M -0.105 ± 0.03 | K -0.51 ± 0.043 | P -1.04 ± 0.095 | Y -0.918 ± 0.086 | D -0.962 ± 0.089 | A -0.369 ± 0.03 | W -0.895 ± 0.1 | E -0.887 ± 0.11 | Q -0.611 ± 0.074 | G -0.781 ± 0.034
H64: K -0.018 ± 0.043 | N -0.007 ± 0.041 | S 0.016 ± 0.025 | T 0.011 ± 0.035 | E 0.034 ± 0.025 | I -0.061 ± 0.038 | F -0.064 ± 0.031 | Q 0.029 ± 0.048 | W -0.075 ± 0.04 | R -0.019 ± 0.025 | P -0.02 ± 0.031 | V -0.019 ± 0.019 | A -0.002 ± 0.021 | G -0.035 ± 0.021 | D -0.028 ± 0.039
W54: H -0.301 ± 0.23 | R -0.133 ± 0.068 | L 0.031 ± 0.067 | A -0.065 ± 0.086 | N -0.03 ± 0.12 | V -0.078 ± 0.19 | I -0.028 ± 0.14 | C -0.363 ± 0.16 | T -0.102 ± 0.26 | G -0.248 ± 0.086 | S -0.055 ± 0.097
K55: E -0.018 ± 0.046 | R -0.059 ± 0.02 | Q -0.038 ± 0.071 | T -0.087 ± 0.045 | L -0.06 ± 0.025 | N -0.038 ± 0.029 | C -0.041 ± 0.035 | P -0.792 ± 0.088 | W -0.192 ± 0.032 | A -0.074 ± 0.027 | V -0.071 ± 0.032 | M -0.048 ± 0.035 | S -0.057 ± 0.026 | F -0.212 ± 0.049 | H -0.106 ± 0.082 | D -0.072 ± 0.034 | G -0.057 ± 0.022
D59: Y -0.054 ± 0.042 | Q -0.027 ± 0.045 | K -0.06 ± 0.052 | H -0.024 ± 0.055 | R -0.087 ± 0.024 | T -0.111 ± 0.04 | C -0.058 ± 0.037 | W -0.161 ± 0.027 | L -0.074 ± 0.023 | M -0.066 ± 0.034 | A -0.009 ± 0.022 | E -0.006 ± 0.027 | G -0.02 ± 0.022 | N -0.079 ± 0.04 | F -0.09 ± 0.031 | I -0.084 ± 0.034 | V -0.034 ± 0.022
A52: Y -0.116 ± 0.043
G56: W -0.811 ± 0.063 | V -0.676 ± 0.041 | A -0.075 ± 0.03 | M -0.546 ± 0.046 | R -0.452 ± 0.02 | Y -0.505 ± 0.036 | N -0.361 ± 0.035 | H -0.363 ± 0.061 | T -0.541 ± 0.042 | Q -0.307 ± 0.043 | C -0.472 ± 0.047 | E -0.239 ± 0.04 | D -0.446 ± 0.038 | S -0.142 ± 0.022 | L -0.77 ± 0.051 | F -0.649 ± 0.061 | K -0.447 ± 0.075 | I -0.831 ± 0.12
L58: N -0.039 ± 0.074 | A -0.01 ± 0.022 | E -0.015 ± 0.03 | F -0.034 ± 0.029 | R 0.006 ± 0.024 | K -0.001 ± 0.043 | T 0.002 ± 0.027 | Y 0.026 ± 0.045 | M -0.06 ± 0.043 | P -0.272 ± 0.028 | G 0.002 ± 0.027 | S -0.007 ± 0.022 | V -0.006 ± 0.03 | I 0 ± 0.057 | C 0.01 ± 0.041
H60: F -0.003 ± 0.045 | V 0 ± 0.028 | Q -0.02 ± 0.059 | L -0.018 ± 0.023 | G -0.092 ± 0.044 | M -0.011 ± 0.025 | R 0.012 ± 0.026 | K -0.064 ± 0.03 | Y -0.014 ± 0.037 | E -0.077 ± 0.05 | W -0.017 ± 0.038 | N -0.015 ± 0.035 | S -0.077 ± 0.027 | A -0.019 ± 0.037 | P -0.38 ± 0.042 | C -0.004 ± 0.037 | T -0.027 ± 0.032 | I -0.045 ± 0.042 | D -0.13 ± 0.04
Q62: Y -0.083 ± 0.042 | V -0.051 ± 0.025 | S -0.025 ± 0.025 | D -0.03 ± 0.033 | N -0.056 ± 0.039 | T -0.023 ± 0.028 | G -0.023 ± 0.017 | K -0.021 ± 0.032 | L -0.039 ± 0.027 | R 0.006 ± 0.02 | W -0.144 ± 0.034 | E 0.013 ± 0.04 | H -0.011 ± 0.031 | A -0.011 ± 0.025 | I -0.151 ± 0.042
E65: T -0.049 ± 0.066 | D 0.081 ± 0.12 | N -0.027 ± 0.068 | L -0.08 ± 0.035 | R -0.065 ± 0.046 | V -0.093 ± 0.039 | I -0.099 ± 0.096 | Q 0.113 ± 0.14 | K 0.002 ± 0.048 | Y -0.184 ± 0.079 | A 0.002 ± 0.036 | P -0.082 ± 0.066 | M -0.089 ± 0.076 | H -0.072 ± 0.087 | C -0.023 ± 0.065
F66: R -0.013 ± 0.068 | G -0.214 ± 0.068 | C 0.033 ± 0.2 | H 0.027 ± 0.056 | L -0.022 ± 0.072 | Y 0.044 ± 0.1 | V 0.071 ± 0.051 | D -0.119 ± 0.46 | S -0.019 ± 0.046 | I -0.011 ± 0.051 | A 0.05 ± 0.12 | E -0.678 ± 0.22 | M 0.028 ± 0.085 | P 0.086 ± 0.063
I53: R -0.945 ± 0.079 | P -1.07 ± 0.12 | E -0.893 ± 0.063 | Q -0.99 ± 0.14 | D -0.907 ± 0.14 | F -0.921 ± 0.089 | G -0.979 ± 0.055 | N -0.783 ± 0.1 | Y -0.821 ± 0.089 | K -0.25 ± 0.13 | C -0.528 ± 0.024 | T -0.787 ± 0.064 | M -0.403 ± 0.046 | S -0.918 ± 0.057 | L -0.117 ± 0.025 | W -0.62 ± 0.081 | H -0.887 ± 0.071
L63: Y -0.029 ± 0.033 | C -0.01 ± 0.031 | F -0.105 ± 0.071 | A 0.029 ± 0.029 | I -0.034 ± 0.029 | W -0.054 ± 0.032 | S 0.005 ± 0.022 | P -0.008 ± 0.043 | N -0.04 ± 0.034 | V -0.043 ± 0.025 | D 0.004 ± 0.031 | Q -0.016 ± 0.033 | T -0.006 ± 0.03 | M 0.025 ± 0.032 | K -0.004 ± 0.052 | E 0.009 ± 0.034 | G -0.016 ± 0.018 | R -0.045 ± 0.023
R61: K 0.058 ± 0.045 | S -0.039 ± 0.028 | D -0.121 ± 0.075 | V -0.067 ± 0.026 | N -0.05 ± 0.049 | F -0.037 ± 0.033 | E -0.047 ± 0.035 | A -0.033 ± 0.029 | P -0.022 ± 0.039 | M -0.077 ± 0.028 | I -0.062 ± 0.041 | W -0.105 ± 0.032 | C -0.073 ± 0.04 | H -0.1 ± 0.054 | T -0.055 ± 0.031

Variants of: B2
Assay: as above
Conditions: Homo sapiens

Abundance fitness, by site and new letter:
A2: E 0.136 ± 0.34 | L 0.208 ± 0.11 | Q 0.34 ± 0.32 | R 0.034 ± 0.12 | P -0.041 ± 0.12 | K 0.588 ± 0.2 | D 0.26 ± 0.12 | G 0.035 ± 0.061 | T 0.161 ± 0.16 | S 0.209 ± 0.094 | W -0.145 ± 0.1 | C -0.077 ± 0.092 | F 0.024 ± 0.15 | M 0.433 ± 0.09
G1: S -0.438 ± 0.44 | E -0.303 ± 0.12 | C -0.605 ± 0.17 | R -0.165 ± 0.16 | N -0.205 ± 0.11 | V -0.384 ± 0.17 | Q -0.306 ± 0.088 | A -0.918 ± 0.12 | D -0.587 ± 0.09
L3: K -0.171 ± 0.083 | N 0.128 ± 0.12 | R -0.021 ± 0.054 | W -0.122 ± 0.14 | F 0.243 ± 0.084 | Y 0.502 ± 0.15 | G 0.028 ± 0.069 | C 0.016 ± 0.083 | I 0.144 ± 0.092 | V 0.073 ± 0.078 | E -0.019 ± 0.069 | A -0.431 ± 0.061 | H 0.426 ± 0.1 | S -0.031 ± 0.12 | D 0.512 ± 0.15 | T -0.598 ± 0.15 | M -0.022 ± 0.098
D8: S -0.124 ± 0.12 | G 0.183 ± 0.063 | C 0.176 ± 0.25 | K -0.018 ± 0.077 | R 0.046 ± 0.06 | V 0.048 ± 0.075 | N -0.009 ± 0.38 | T -0.129 ± 0.095 | M -0.125 ± 0.085 | A 0.19 ± 0.065 | Q 0.146 ± 0.15 | E 0.261 ± 0.077
P4: V 0.29 ± 0.098 | I 0.301 ± 0.12 | F -0.263 ± 0.24 | H 0.093 ± 0.1 | C 0.211 ± 0.081 | Q 0.293 ± 0.2 | T 0.243 ± 0.078 | K 0.17 ± 0.12 | S 0.245 ± 0.065 | A 0.079 ± 0.059 | L 0.322 ± 0.11 | M 0.196 ± 0.15 | G 0.217 ± 0.064 | E 0.349 ± 0.11 | Y 0.29 ± 0.14 | R 0.219 ± 0.061 | D 0.213 ± 0.066 | W 0.057 ± 0.081
N6: G 0.044 ± 0.074 | Q -0.212 ± 0.092 | H -0.661 ± 0.24 | R -0.048 ± 0.071 | F -0.431 ± 0.1 | W -0.76 ± 0.13 | E -0.007 ± 0.071 | L -0.124 ± 0.072 | P -1.5 ± 0.12 | A -0.229 ± 0.084 | D -0.189 ± 0.1 | M 0.135 ± 0.072 | K 0.157 ± 0.074 | V -0.127 ± 0.1
A5: K 0.109 ± 0.097 | T 0.185 ± 0.069 | Q -0.025 ± 0.099 | W -0.655 ± 0.085 | N 0.215 ± 0.088 | S -0.107 ± 0.073 | R 0.064 ± 0.068 | L 0.045 ± 0.071 | E 0.216 ± 0.089 | I 0.249 ± 0.14 | P -0.845 ± 0.077 | F -0.012 ± 0.17 | G 0.081 ± 0.059 | M 0.292 ± 0.07
L7: G -0.305 ± 0.064 | T -0.136 ± 0.12 | R -0.614 ± 0.077 | A -0.097 ± 0.062 | W -0.429 ± 0.077 | Q -0.763 ± 0.14 | D -1.17 ± 0.17 | E -0.924 ± 0.096 | C -0.157 ± 0.14 | V -0.199 ± 0.077 | H -0.87 ± 0.17 | S -0.47 ± 0.091
